Consider nine substances from publication PMC10967027.

Values joined by “and” are separate entries in the source; they are usually repeats but may differ in a detail not shown here. Equal entries are not always repeated.

Test [1] addresses 868-Z11 single chain TCR (WT), displayed on yeast. Nature of the test: flow cytometry on cells; yeast displaying the 868-Z11 scTCR stained with PE-conjugated SL9/HLA-A2 tetramer, 256 pM to 32.8 nM, 30 min at 4°C, PBS-BSA; MFI fit to a 1:1 binding isotherm; apparent KD; in duplicate. A general note: Flow cytometry measures light scatter and fluorescence of single cells or particles in a stream.

Test [2] deals with 868-Z11 G104βP/T96βK single chain TCR. Description: SPR; steady state; scTCR immobilised on a CM5 Series S chip by amine coupling (about 2000 RU); peptide/MHC injected at 5 μL/min at concentrations between 50 µM and 2 nM; 25 °C; HBS-EP (10 mM HEPES, 150 mM NaCl, 3 mM EDTA, 0.005% surfactant P-20, pH 7.4); 1:1 binding model; each cell one of three titrations of its group. For orientation: In SPR one partner is held on a chip, and binding of the other changes the refractive index at the surface.

Test [3] has as its target 868-Z11 A94αH/T96βK single chain TCR. Described as above.
The target in test [4] is 868-Z11 T96βK single chain TCR. Described as above.
The target of test [5] is 868-Z11 G104βP/T96βK single chain TCR, soluble recombinant.
The target in test [6] is 868-Z11 A94αH single chain TCR, soluble recombinant. Description: SPR; single cycle kinetics; scTCR immobilised on CM5 chip by amine coupling (100-300 RU); peptide/MHC injected at 0.6-48 nM, 100 μL/min; 25°C; HBS-EP pH 7.4; 1:1 model.
For test [7], the target named is 868-Z11 G104βP single chain TCR, soluble recombinant. The description is as above.
The target of test [8] is 868-Z11 T96βK single chain TCR, soluble recombinant. Nature of the test: SPR; steady state; scTCR immobilised on CM5 chip by amine coupling (about 2000 RU); peptide/MHC injected at 50 µM to 2 nM, 5 μL/min; 25°C; HBS-EP pH 7.4; 1:1 model.
Test [9] deals with 868-Z11 A94αH/T96βK single chain TCR, soluble recombinant. The description is as above.
Test [10] deals with 868-Z11 G104βP/T96βK single chain TCR, soluble recombinant. Described as above.

For the substance “PE-conjugated SL9/HLA-A2 tetramer (from UniProt P61769 21-119) (peptide-MHC)”, the Kd in test [1] was determined as 0.0017 µM.

As for “SL9 T8V escape variant presented by HLA-A*02:01 (from UniProt P61769 21-119) (peptide-MHC)”, the Kd in test [2] is 1.4 µM and 3.5 µM and 3.2 µM; in test [3], 22.2 µM and 24.3 µM and 40.7 µM; in test [4], 1.6 µM and 1.9 µM and 2.7 µM.

“SL9 V6I escape variant presented by HLA-A*02:01 (from UniProt P61769 21-119) (peptide-MHC)”: the Kd in [2] is 0.7 µM and 1.5 µM and 1.6 µM; in test [3], 9.5 µM and 12.4 µM and 17.9 µM; in test [4], 0.8 µM and 1.1 µM and 1.2 µM.

Take “SL9 V6I/T8V escape variant presented by HLA-A*02:01 (from UniProt P61769 21-119) (peptide-MHC)”: the Kd in test [2] is 0.8 µM and 1.8 µM and 1.5 µM; in [3], 9.9 µM and 13.7 µM and 17.9 µM; in test [4], 0.8 µM and 1.1 µM and 1 µM.

As to “SL9 Y3F escape variant presented by HLA-A*02:01 (from UniProt P61769 21-119) (peptide-MHC)”, the Kd in test [2] was 34 µM and 39.8 µM and 52.3 µM; in test [3], 264 µM and 274 µM and 403 µM; in test [4] it was 38.6 µM and 39.3 µM and 58.2 µM.

Regarding “SL9 Y3F/T8V escape variant presented by HLA-A*02:01 (from UniProt P61769 21-119) (peptide-MHC)”, the Kd was 49.1 µM and 62.5 µM in [2]; 324 µM and 314 µM and 475 µM in [3]; 46 µM and 44.6 µM and 59 µM in test [4].

Take “SL9 Y3F/V6I escape variant presented by HLA-A*02:01 (from UniProt P61769 21-119) (peptide-MHC)”: the Kd in test [2] is 12.5 µM and 18.5 µM and 22.5 µM; in test [3] it was 102 µM and 105 µM and 167 µM; in [4], 9.6 µM and 10.2 µM and 15.7 µM.

As for “SL9 Y3F/V6I/T8V escape variant presented by HLA-A*02:01 (from UniProt P61769 21-119) (peptide-MHC)”, the Kd is 20.4 µM and 28.1 µM and 26.3 µM in test [2]; 154 µM and 177 µM and 203 µM in [3]; 17.3 µM and 23.8 µM and 20.2 µM in test [4].

As for “SL9/HLA-A2 (HIV SL9 epitope presented by HLA-A*02:01), soluble (from UniProt P61769 21-119) (peptide-MHC)”, the peptide EC50 of IL-2 release (ELISA): CD8+ Jurkat 76 cells with the full length 868-Z11 G104βP/T96βK TCR co-cultured with T2 cells pulsed with WT SL9 peptide, 0.1 nM-100 µM in [5] worked out at 0.01 µM. Besides, the Kd in [6] came to 0.0052 µM; in test [7], 0.0003 µM; in test [8], 2.5 µM; in test [9], 33 µM; in test [10], 2.2 µM.
